Test results as given in paper PMC12946210.

Molecular target: FBH1 (F-box helicase 1, isoform 4);SKP1;CUL1;RBX1 (human;human;human;human, UniProt Q2TAK1;P63208;Q13616;P62877 1-969;1-163;1-776;1-108, |||)
Experiment: EMSA

B1: Lag gap fork (mixed)
DNA 1: CTCAGGACTCAGTTCGTCAGCCCTTGACAGCGATGGAAGC
DNA 2: CGAAGGTAGCGACAGTTCCCCTGACGAACTGAGTCCTGAG
DNA 3: GCTTCCATCGCTCTCAAG
DNA 4: TCGCTACCTTCG
B1: binds.
